Key:
[1] = target: recombinant human B7H3 extra cellular domain (ECD) protein (human) (UniProt Q5ZPR3); assay: Octet binding assay
[2] = target: human B7H3 on A498 cells (human) (UniProt Q5ZPR3); assay: flow cytometry, whole cell binding to B7H3+ A498 cells, MFI
[3] = target: human B7H3 on A498 cells (human) (UniProt Q5ZPR3); assay: as above; remark: listed apart in the source
[4] = target: human B7H3 on A498 cells (human) (UniProt Q5ZPR3); assay: flow cytometry, whole cell binding to B7H3+ A498 cells, MFI (FITC)

Sequence of recombinant human B7H3 extra cellular domain (ECD) protein (human) (Q5ZPR3 29-461): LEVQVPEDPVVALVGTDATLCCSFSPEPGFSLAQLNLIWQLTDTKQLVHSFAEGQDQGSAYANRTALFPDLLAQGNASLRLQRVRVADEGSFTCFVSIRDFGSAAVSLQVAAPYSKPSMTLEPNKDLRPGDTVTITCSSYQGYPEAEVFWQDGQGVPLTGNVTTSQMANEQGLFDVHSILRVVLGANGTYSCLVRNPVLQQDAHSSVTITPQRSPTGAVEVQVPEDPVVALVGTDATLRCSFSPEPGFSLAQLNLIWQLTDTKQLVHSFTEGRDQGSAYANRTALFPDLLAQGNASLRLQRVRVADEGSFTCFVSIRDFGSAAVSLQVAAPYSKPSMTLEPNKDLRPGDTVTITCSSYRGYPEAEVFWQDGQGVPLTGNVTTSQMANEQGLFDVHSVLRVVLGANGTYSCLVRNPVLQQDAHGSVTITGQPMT
Sequence of human B7H3 on A498 cells (human) (Q5ZPR3 29-534 limits assumed): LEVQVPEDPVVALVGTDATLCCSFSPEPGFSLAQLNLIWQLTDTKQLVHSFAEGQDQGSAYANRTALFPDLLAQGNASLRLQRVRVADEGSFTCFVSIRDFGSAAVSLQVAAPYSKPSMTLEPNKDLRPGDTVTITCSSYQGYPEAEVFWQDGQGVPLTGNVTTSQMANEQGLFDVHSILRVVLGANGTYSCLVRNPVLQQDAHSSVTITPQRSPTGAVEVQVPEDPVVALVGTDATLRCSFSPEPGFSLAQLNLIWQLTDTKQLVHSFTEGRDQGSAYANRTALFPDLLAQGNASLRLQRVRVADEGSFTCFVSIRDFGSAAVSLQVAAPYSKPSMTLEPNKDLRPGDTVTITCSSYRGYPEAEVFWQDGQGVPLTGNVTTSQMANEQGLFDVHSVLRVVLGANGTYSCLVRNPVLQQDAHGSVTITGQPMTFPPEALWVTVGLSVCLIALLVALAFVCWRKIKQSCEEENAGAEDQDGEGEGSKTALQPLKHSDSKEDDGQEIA

- Kd [1]: 0.739 nM
- koff [1]: 0.000199 s⁻¹
- kon [1]: 269000 M⁻¹ s⁻¹
- EC50 [2]: 7.94 nM
- EC50 [3]: 2.18 nM
- EC50 [4]: 0.697 nM
Substance: Reference Ab 1 (an enoblituzumab analog) (antibody)

From patent US20250243278A1
